Target: spike protein of wild-type SARS-CoV strain HKU 39849 (SARS-CoV strain HKU 39849)
Test: cell-based or functional assay

CR03-022 (antibody)
Log (TCID50/ml) with mAb (60 µg/ml CR03-022, FRhK-4 cells) (log TCID50/ml): 4 | NI (neutralization index): 3.3 logs
